Measurements as given in article PMC4933183.

Assays:
[1] = target: biotinylated human IgM (human); experiment: SPR; BIAcore T100, 37 °C, HBS-EP; biotinylated human IgM on streptavidin chip (biotinylated human IgG as reference), gel-filtered monomeric DBL domains injected at 20 μl/min for 2 min to equilibrium; 1:1 Langmuir isotherm
[2] = target: SPAM fragment of DBLMSP2 (3D7) (Plasmodium falciparum (3D7 strain)); experiment: SEC; size exclusion chromatography of the purified Cd4-tagged proteins; markers thyroglobulin, ferritin, aldolase, conalbumin, carbonic anhydrase
[3] = target: recombinant full-length DBLMSP2 (3D7), monobiotinylated (Plasmodium falciparum (3D7 strain)); experiment: SPR; BIAcore T100, 37 °C, HBS-EP; biotinylated full-length DBLMSP or DBLMSP2 on streptavidin chip, purified human IgM injected 30 min at 10 μl/min to equilibrium; equilibrium fit to a simple Langmuir isotherm; values reflect overall binding avidity
[4] = target: recombinant full-length DBLMSP (3D7), monobiotinylated (Plasmodium falciparum (3D7 strain)); experiment: as above

## DBL domain of DBLMSP2 (3D7) (domain or fragment)
[1]
  Kd: 600 nM

## DBL domain of DBLMSP (3D7) (domain or fragment)
[1]
  Kd: 60 nM

## SPAM fragment of DBLMSP2 (3D7) (domain or fragment)
[2]
  stoichiometry N: > 4

## human IgM (natural protein)
[3]
  Kd: 1.1 nM
[4]
  Kd: 0.3 nM
